First the molecules themselves.
B1: EEHEE_rd3_1049 (parent)
chain: TTVKLGDIKVTFDNPEKAKKYAQKLAKIYQLTVHVHGDTIHVK

In the data set the parent is B1. Kind of data set: folding stability dG (cDNA display proteolysis); higher = more stable. Particulars: PBS, room temperature.
With TTVKLGDIKVTEDNPEKAKKYAQKLAKIYQLTVHVHGDTIHVK, the “folding stability dG” value worked out at 0.041 kcal/mol. On to TTVKLGDIKVTHDNPEKAKKYAQKLAKIYQLTVHVHGDTIHVK, for which the “folding stability dG” value stood at 0.172 kcal/mol. Under TTVKLGDIKVTIDNPEKAKKYAQKLAKIYQLTVHVHGDTIHVK stands 0.634 kcal/mol; under TTVKLGDIKVTGDNPEKAKKYAQKLAKIYQLTVHVHGDTIHVK, -0.438 kcal/mol.

TTVKLGDIKVTCDNPEKAKKYAQKLAKIYQLTVHVHGDTIHVK: the “folding stability dG” value stood at 1.74 kcal/mol. Under TTVKLQDIKVTFDNPEKAKKYAQKLAKIYQLTVHVHGDTIHVK stands 1.12 kcal/mol; under TTVKLKDIKVTFDNPEKAKKYAQKLAKIYQLTVHVHGDTIHVK, 1.41 kcal/mol.

On to TTVKLMDIKVTFDNPEKAKKYAQKLAKIYQLTVHVHGDTIHVK, for which the “folding stability dG” value was determined as 1.55 kcal/mol.

Consider TTVKLIDIKVTFDNPEKAKKYAQKLAKIYQLTVHVHGDTIHVK, for which the “folding stability dG” value came out at 1.49 kcal/mol. As for TTVKLRDIKVTFDNPEKAKKYAQKLAKIYQLTVHVHGDTIHVK, the figure is 1.76 kcal/mol; as for TTVKLFDIKVTFDNPEKAKKYAQKLAKIYQLTVHVHGDTIHVK, 2.02 kcal/mol. Under TTVKLNDIKVTFDNPEKAKKYAQKLAKIYQLTVHVHGDTIHVK stands 1.45 kcal/mol; under TTVKLPDIKVTFDNPEKAKKYAQKLAKIYQLTVHVHGDTIHVK, 0.61 kcal/mol; under TTVKLEDIKVTFDNPEKAKKYAQKLAKIYQLTVHVHGDTIHVK, 0.771 kcal/mol.

As to TTVKLLDIKVTFDNPEKAKKYAQKLAKIYQLTVHVHGDTIHVK, the “folding stability dG” value was determined as 1.61 kcal/mol. As for TTVKLVDIKVTFDNPEKAKKYAQKLAKIYQLTVHVHGDTIHVK, the figure is 1.2 kcal/mol; as for TTVKLYDIKVTFDNPEKAKKYAQKLAKIYQLTVHVHGDTIHVK, 1.89 kcal/mol; as for TTVKLSDIKVTFDNPEKAKKYAQKLAKIYQLTVHVHGDTIHVK, 1.05 kcal/mol. As for TTVKLWDIKVTFDNPEKAKKYAQKLAKIYQLTVHVHGDTIHVK, the figure is 2.23 kcal/mol. For TTVKLHDIKVTFDNPEKAKKYAQKLAKIYQLTVHVHGDTIHVK, the “folding stability dG” value was 1.75 kcal/mol. As for TTVKLTDIKVTFDNPEKAKKYAQKLAKIYQLTVHVHGDTIHVK, the figure is 0.948 kcal/mol; as for TTVKLGDTKVTFDNPEKAKKYAQKLAKIYQLTVHVHGDTIHVK, 1.54 kcal/mol. As for TTVKLGDKKVTFDNPEKAKKYAQKLAKIYQLTVHVHGDTIHVK, the figure is 1.83 kcal/mol; as for TTVKLGDNKVTFDNPEKAKKYAQKLAKIYQLTVHVHGDTIHVK, 1.21 kcal/mol; as for TTVKLGDAKVTFDNPEKAKKYAQKLAKIYQLTVHVHGDTIHVK, 1.18 kcal/mol. Under TTVKLGDDKVTFDNPEKAKKYAQKLAKIYQLTVHVHGDTIHVK stands 0.538 kcal/mol; under TTVKLGDQKVTFDNPEKAKKYAQKLAKIYQLTVHVHGDTIHVK, 1.28 kcal/mol; under TTVKLGDPKVTFDNPEKAKKYAQKLAKIYQLTVHVHGDTIHVK, 0.237 kcal/mol. Turning to TTVKLGDVKVTFDNPEKAKKYAQKLAKIYQLTVHVHGDTIHVK, the “folding stability dG” value stood at 1.88 kcal/mol. With TTVKLGDWKVTFDNPEKAKKYAQKLAKIYQLTVHVHGDTIHVK, the “folding stability dG” value was 3.22 kcal/mol. Under TTVKLGDGKVTFDNPEKAKKYAQKLAKIYQLTVHVHGDTIHVK stands 0.616 kcal/mol; under TTVKLGDLKVTFDNPEKAKKYAQKLAKIYQLTVHVHGDTIHVK, 2.19 kcal/mol.

Turning to TTVKLGDMKVTFDNPEKAKKYAQKLAKIYQLTVHVHGDTIHVK, the “folding stability dG” value was found to be 2.1 kcal/mol.

As to TTVKLGDEKVTFDNPEKAKKYAQKLAKIYQLTVHVHGDTIHVK, the “folding stability dG” value came out at 0.747 kcal/mol. Under TTVKLGDFKVTFDNPEKAKKYAQKLAKIYQLTVHVHGDTIHVK stands 2.95 kcal/mol; under TTVKLGDYKVTFDNPEKAKKYAQKLAKIYQLTVHVHGDTIHVK, 2.87 kcal/mol; under TTVKLGDSKVTFDNPEKAKKYAQKLAKIYQLTVHVHGDTIHVK, 1.37 kcal/mol. As for TTVKLGDCKVTFDNPEKAKKYAQKLAKIYQLTVHVHGDTIHVK, the figure is 3.42 kcal/mol. As for TTVKLGDRKVTFDNPEKAKKYAQKLAKIYQLTVHVHGDTIHVK, the figure is 1.94 kcal/mol; as for TTVKLGDHKVTFDNPEKAKKYAQKLAKIYQLTVHVHGDTIHVK, 2.62 kcal/mol; as for TTVKLGDIKVSFDNPEKAKKYAQKLAKIYQLTVHVHGDTIHVK, 1.77 kcal/mol. As for TTVKLGDIKVKFDNPEKAKKYAQKLAKIYQLTVHVHGDTIHVK, the “folding stability dG” value came out at 2.06 kcal/mol. Under TTVKLGDIKVQFDNPEKAKKYAQKLAKIYQLTVHVHGDTIHVK stands 1.88 kcal/mol. As for TTVKLGDIKVHFDNPEKAKKYAQKLAKIYQLTVHVHGDTIHVK, the figure is 2.31 kcal/mol.

TTVKLGDIKVAFDNPEKAKKYAQKLAKIYQLTVHVHGDTIHVK: the “folding stability dG” value worked out at 1.48 kcal/mol. As for TTVKLGDIKVEFDNPEKAKKYAQKLAKIYQLTVHVHGDTIHVK, the figure is 1.58 kcal/mol. As for TTVKLGDIKVNFDNPEKAKKYAQKLAKIYQLTVHVHGDTIHVK, the figure is 1.65 kcal/mol; as for TTVKLGDIKVVFDNPEKAKKYAQKLAKIYQLTVHVHGDTIHVK, 2.42 kcal/mol; as for TTVKLGDIKVLFDNPEKAKKYAQKLAKIYQLTVHVHGDTIHVK, 2.21 kcal/mol. Under TTVKLGDIKVDFDNPEKAKKYAQKLAKIYQLTVHVHGDTIHVK stands 1.08 kcal/mol; under TTVKLGDIKVYFDNPEKAKKYAQKLAKIYQLTVHVHGDTIHVK, 2.69 kcal/mol; under TTVKLGDIKVMFDNPEKAKKYAQKLAKIYQLTVHVHGDTIHVK, 2.15 kcal/mol. As for TTVKLGDIKVCFDNPEKAKKYAQKLAKIYQLTVHVHGDTIHVK, the “folding stability dG” value is 2.98 kcal/mol.

Take TTVKLGDIKVRFDNPEKAKKYAQKLAKIYQLTVHVHGDTIHVK: the “folding stability dG” value came to 2.24 kcal/mol. Under TTVKLGDIKVPFDNPEKAKKYAQKLAKIYQLTVHVHGDTIHVK stands 1.05 kcal/mol.

On to TTVKLGDIKVFFDNPEKAKKYAQKLAKIYQLTVHVHGDTIHVK, for which the “folding stability dG” value is 2.51 kcal/mol. As for TTVKLGDIKVIFDNPEKAKKYAQKLAKIYQLTVHVHGDTIHVK, the figure is 2.33 kcal/mol.

With TTVKLGDIKVWFDNPEKAKKYAQKLAKIYQLTVHVHGDTIHVK, the “folding stability dG” value was determined as 2.74 kcal/mol. As for TTVKLGDIKVGFDNPEKAKKYAQKLAKIYQLTVHVHGDTIHVK, the figure is 0.999 kcal/mol.

Values taken from the MegaScale stability set (Tsuboyama et al. 2023).
